Results published in US20230087125A1 (Memorial Sloan Kettering, published 2023).

T1: human CD127 (IL-7R), as used in the scFv binding experiments (human, UniProt P16871 21-239, limits assumed)
T1 construct: also called IL-7Ralpha; interleukin-7 receptor subunit alpha
T1 sequence: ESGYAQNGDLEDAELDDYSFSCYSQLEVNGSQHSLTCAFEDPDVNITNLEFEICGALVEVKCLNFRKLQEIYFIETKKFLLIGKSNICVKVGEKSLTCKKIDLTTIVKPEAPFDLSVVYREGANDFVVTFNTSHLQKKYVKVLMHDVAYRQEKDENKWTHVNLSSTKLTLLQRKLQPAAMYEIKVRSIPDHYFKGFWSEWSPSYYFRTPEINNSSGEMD


Molecular target: T1, human CD127 (IL-7R), as used in the …
Test: scFv binding experiment, given as ED50; method and format not stated (FIG. 1A)

EC50 | Binder
0.539 µg/mL | scFv703-Fc (VL-VH) (Fc fusion, The Fc is not described; also called scFv703LH; VL-VH scFv of OSE703; not shown: The Fc part implied by the name scFv703-Fc, and any hinge or linker to it) scFv: DIVLTQSPSSLPVTPGEPASISCRSSQSLLTVKGITSLYWFLQKPGQSPKLLIYRMSNRDSGVPDRFSGSGSETDFTLKISRVEAEDVGTYYCAQFLEYPHTFGAGTKLELKGGGGSGGGGSGGGGSAVQLVESGGGLVQPGGSLKITCAASGFTFTNAAMYWVRQAPGKGLEWVARIRTKANNYATYYADSVKGRFTISRDDSKSTVYLQMDSVKTEDTATYYCIVVVLTTTRDYFDYWGQGVLVTVSS
3.32 µg/mL | scFv703-Fc (VH-VL) (Fc fusion, The Fc is not described; also called scFv703HL; VH-VL scFv of OSE703; not shown: The Fc part implied by the name scFv703-Fc, and any hinge or linker to it) scFv: AVQLVESGGGLVQPGGSLKITCAASGFTFTNAAMYWVRQAPGKGLEWVARIRTKANNYATYYADSVKGRFTISRDDSKSTVYLQMDSVKTEDTATYYCIVVVLTTTRDYFDYWGQGVLVTVSSGGGGSGGGGSGGGGSDIVLTQSPSSLPVTPGEPASISCRSSQSLLTVKGITSLYWFLQKPGQSPKLLIYRMSNRDSGVPDRFSGSGSETDFTLKISRVEAEDVGTYYCAQFLEYPHTFGAGTKLELK
